In US20130252887A1 (BETH ISRAEL DEACONESS MEDICAL CENTER, published 2013) one finds IC50 data, which are given here for two molecules.

Assay [1] addresses T1, isolated recombinant domain V of β2GPI (residues 244-326) with N-terminal HA peptide tag (UniProt P02749 263-345).
T1 construct: range 244-326; Expressed in E. coli from pET15b with a His tag that was removed with TEV protease; The HA-tagged form was used in the cardiolipin assays, where it was detected or dimerized with anti-HA antibody Abcam ab1265; also called β2GPI-DV; individual domain V of β2GPI
T1 sequence: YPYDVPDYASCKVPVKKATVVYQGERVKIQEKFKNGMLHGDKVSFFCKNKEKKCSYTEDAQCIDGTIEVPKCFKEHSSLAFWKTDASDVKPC
In words: inhibition of binding of isolated HA-tagged β2GPI-DV to a cardiolipin-coated plate, without dimerization antibodies; OD405, one-site fit. As for the experimental part: (§1) Cardiolipin-coated 96 well plates available as part of the ImmunoWELL cardiolipin IgG test kit (GenBio) were blocked with 0.5% of skim milk and 2% BSA in 20 mM Tris, 100 mM NaCl, 2 mM CaCl₂, pH 7.4. The assay buffer contained 20 mM Tris, 100 mM NaCl, 2 mM CaCl₂, pH 7.4 with 2% BSA and the wash buffer was 20 mM Tris, 100 mM NaCl, 2 mM CaCl₂, pH 7.4. When the purified β2GPI (Haematologic Technologies, Inc.) was used in experiments, 27 mM glycine was added to the assay buffer to account for glycine present in the stock solution of β2GPI. β2GPI bound to cardiolipin was detected with peroxidase-conjugated anti-β2GPI antibodies (Cedarlane, CL20021HP, 2 mg/ml) diluted 1:2500. […] The peroxidase activity of the bound antibodies was detected using 2-2′-azino-di-[3-ethylbenzthizzoline]sulfonate (ABTS) chromogenic reagent by measuring OD at 405 nm. […] The fits of the raw data and the titration data points were then normalized to the maximum binding determined from the fit to facilitate comparison.
For the inhibition studies, increasing concentrations of A1 or A1-A1 were added to a constant amount of β2GPI ([…]), normal human serum (1%) or β2GPI-DV (130 nM) and incubated for 1 hour at room temperature. […] Then, samples were incubated on wells for an additional 1 hour and, after washing, the bound β2GPI/anti-β2GPI or β2GPI-DV/anti-tag antibody complexes were detected.

Assay [2] has as its target T1, isolated recombinant domain V of β2GPI …. In words: inhibition of binding of 30 nM HA-tagged β2GPI-DV to a cardiolipin-coated plate, with anti-tag (anti-HA) antibody present (dimeric complexes); OD405, one-site fit. As for the experimental part:
As we observed for the inhibition of the binding of β2GPI in human serum and purified β2GPI to cardiolipin-coated surfaces, the isolated domain V was inhibited much stronger by the dimeric inhibitor A1-A1 compared to monomeric A1 in the presence of dimeric β2GPI-DV/anti-tag antibody complexes.
as §1, with “comparison. […]” for “comparison.”

Assay [3] has as its target T2, Beta2-glycoprotein I (β2GPI), full-length, human (human, UniProt P02749 20-345).
T2 construct: mature; Two preparations of the same native protein were used, serum and purified from plasma; the assay field of each row says which; Where anti-β2GPI antibodies (Cedarlane CL20021HP, peroxidase-conjugated) were present, β2GPI stood as dimeric β2GPI/antibody complexes; also called B2GPI; β2GPI in normal human serum
T2 sequence (looked up): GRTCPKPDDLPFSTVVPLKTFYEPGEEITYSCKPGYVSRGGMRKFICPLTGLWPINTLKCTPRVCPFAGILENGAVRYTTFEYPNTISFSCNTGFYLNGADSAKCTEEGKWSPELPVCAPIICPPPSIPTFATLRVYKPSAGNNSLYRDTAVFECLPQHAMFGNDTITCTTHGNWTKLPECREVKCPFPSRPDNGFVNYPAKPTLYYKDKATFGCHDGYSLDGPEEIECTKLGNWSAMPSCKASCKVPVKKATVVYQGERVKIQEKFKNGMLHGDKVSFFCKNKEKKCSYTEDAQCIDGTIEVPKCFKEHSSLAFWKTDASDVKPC
In words: inhibition of binding of β2GPI in 0.04% human serum to a cardiolipin-coated plate, with anti-β2GPI antibodies present (β2GPI/antibody complexes); OD405, one-site fit. The text has this:
(§2) We compared the dimeric inhibitor, A1-A1, to monomeric A1 on the inhibition of binding of β2GPI/anti-β2GPI antibody complexes to cardiolipin. First, we used pooled normal human serum as a source of β2GPI. The majority of the β2GPI molecules in serum is in the circular form (Agar et al., Blood, 2010). To select the appropriate concentration of β2GPI for the inhibition studies, we measured the binding of β2GPI to cardiolipin (FIG. 2A). To create β2GPI/anti-β2GPI complexes, anti-β2GPI antibodies at constant concentration were added to β2GPI before the samples were applied to cardiolipin. […] We then compared the efficiency of A1-A1 and A1 for the inhibition of the binding of β2GPI in serum to cardiolipin in the presence of anti-β2GPI antibodies (FIG. 2B). 0.04% of human serum, which is in the linear region of the binding curve, was incubated on a cardiolipin-coated surface in the presence of anti-β2GPI antibodies and the inhibitors. In the presence of anti-β2GPI antibodies, the dimeric molecule, A1-A1, inhibited the binding to cardiolipin of β2GPI in serum much stronger than monomeric A1. […] Also, we measured how A1-A1 and A1 inhibited the binding of β2GPI in serum in the absence of anti-β2GPI antibodies (FIG. 3). A 1% solution of human serum was titrated with A1-A1 or A1 and β2GPI bound to cardiolipin was subsequently detected with anti-β2GPI antibodies. […]

Assay [4] concerns the target T2, Beta2-glycoprotein I (β2GPI), …. Briefly: inhibition of binding of β2GPI in 1% human serum to a cardiolipin-coated plate, without anti-β2GPI antibodies during binding (monomeric β2GPI); OD405, one-site fit.
Excerpt: as §2

Assay [5] shares this target. In words: inhibition of binding of 10 nM β2GPI purified from plasma to a cardiolipin-coated plate, with anti-β2GPI antibodies present; OD405, one-site inhibition fit. As for the experimental part:
Next, we analyzed how A1-A1 and A1 inhibit the binding of purified β2GPI to cardiolipin. […] We used β2GPI purified from human plasma available from Haematologic Technologies, Inc. and analyzed the binding and inhibition of the binding of purified β2GPI by A1-A1 and A1 in the presence and in the absence of anti-β2GPI antibodies. […] We incubated 10 nM of β2GPI with various concentrations of the dimeric, A1-A1, and monomeric, A1, inhibitors in the presence of anti-β2GPI antibodies. […] In a separate experiment, we measured the inhibition of β2GPI in the presence of antibodies and compared the measured values to values predicted by the fit of the titration data (FIG. 4C). The measured values were close to those expected from the fit, additionally confirming that in the presence of anti-β2GPI antibodies a much lower concentration of A1-A1 was required to inhibit 50% of the binding of purified β2GPI to cardiolipin compared to A1. […] Similarly to what we observed for β2GPI in serum, the binding of purified β2GPI to cardiolipin in the presence of anti-β2GPI antibodies was inhibited more strongly by the dimeric inhibitor A1-A1 than by A1. Both, A1-A1 and A1, were ineffective in the inhibition of β2GPI in the absence of anti-β2GPI antibodies. […]

B1: monomeric A1 (first LA module of mouse ApoER2, residues 12-47 of the mature protein) (receptor)
chain: not shown
notes: range 12-47; Residues 12-47 are counted on the mature protein, not the precursor; also called A1 module
What is called IC50 is the concentration needed to halve the response being measured. With B1, the IC50 came out at 188 µM in assay [1]; 204 µM in assay [2]; 218 µM in assay [3]; 176 µM in assay [4]; 191 µM in assay [5].

B2: dimeric inhibitor A1-A1 (two A1 ligand-binding LA modules of ApoER2 connected by a Gly-Ser-Ser-Gly linker) (designed binder)
chain: AECEEDQFRCRNERCIPLVWRCDEDNDCSDNSDEDDCGSSGCEEDQFRCRNERCIPLVWRCDEDNDCSDNSDEDDCEA
On to B2, for which the IC50 was 12 µM in assay [2], 10 µM in assay [3], 189 µM in assay [4] and 26 µM in assay [5].
